From the supplement of paper PMC7125110
± gives the standard error. For part of these data: Fewer inactive variants are shown than the library holds.

B1: glmS ribozyme (parent)
chain: AUAAAAGCGCCAGAACUACAGAAAUGUAGUUGACGAGGAGGAGGUUUAUCGAAUUUUCGGCGGAUGCCUCCAAA

Experiments:
Details in all cases: with glucosamine-6-phosphate
[1] = variants of: B1; assay: kcat; higher = faster cleavage; RNA array
Summary of the method: (§1)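 The measurements used barcoded ribozyme variants on sequenced MiSeq chips, transcribed in situ by E. coli RNA polymerase and tracked at 37 °C with a hybridised Cy3 probe. Glucosamine-6-phosphate, 40 μM to 10 mM in HEPES/KCl/Mg(OAc)2 buffer, was flowed in while tiles were imaged over ~14 h. Baseline-normalised signals, also normalised to non-cleaving reference variants, gave per-tile medians that were fit to one- or two-exponential decays for kobs. kcat and KM resulted from weighted Michaelis–Menten fits across concentrations.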

[2] = variants of: B1; assay: KM; higher = weaker cofactor use; RNA array
Summary of the method: as §1

[3] = variants of: B1; assay: self-cleavage kobs at 640 uM GlcN6P; higher = faster cleavage; RNA array
Summary of the method: as §1

[4] = variants of: B1; assay: self-cleavage kobs at 2500 uM GlcN6P; higher = faster cleavage; RNA array
Summary of the method: as §1

[5] = variants of: B1; assay: self-cleavage kobs at 10000 uM GlcN6P; higher = faster cleavage; RNA array
Summary of the method: as §1

[6] = variants of: B1; assay: self-cleavage kobs at 160 uM GlcN6P; higher = faster cleavage; RNA array
Summary of the method: as §1

[7] = variants of: B1; assay: self-cleavage kobs at 40 uM GlcN6P; higher = faster cleavage; RNA array
Summary of the method: as §1

| Variant | kcat [1] [s⁻¹] | KM [2] [µM] | self-cleavage kobs at 640 uM GlcN6P [3] [s⁻¹] | self-cleavage kobs at 2500 uM GlcN6P [4] [s⁻¹] | self-cleavage kobs at 10000 uM GlcN6P [5] [s⁻¹] | self-cleavage kobs at 160 uM GlcN6P [6] [s⁻¹] | self-cleavage kobs at 40 uM GlcN6P [7] [s⁻¹] |
| --- | --- | --- | --- | --- | --- | --- | --- |
| U31G C58A | 0.000195 ± 2.1e-05 | 2240 ± 600 | 5.23e-05 ± 1.2e-05 | 9.47e-05 ± 1.4e-05 | 0.000163 ± 1.7e-05 |  |  |
| G9A C34G C67A | < 1e-05 |  |  | < 1e-05 |  |  |  |
| U30C C70U | 0.000529 ± 0.00014 | 1890 ± 790 | 0.000125 ± 1e-05 | 0.000261 ± 2.9e-05 | 0.000536 ± 5.9e-05 | 6.03e-05 ± 7.8e-06 |  |
| C58A U65A | 1.58e-05 ± 1.9e-06 |  |  |  |  |  |  |
| U55C G66C | 0.00112 ± 9.6e-05 | 1950 ± 340 | 0.000336 ± 7.1e-05 | 0.000678 ± 0.00012 | 0.000913 ± 9.7e-05 | 7.47e-05 ± 1.8e-05 |  |
| A6G U54A | 0.000561 ± 5.2e-05 | 1600 ± 440 | 0.000143 ± 5.7e-05 | 0.000387 ± 0.00011 | 0.000476 ± 7.7e-05 |  |  |
| U46A C61U | < 1e-05 |  | < 1e-05 | < 1e-05 |  | < 1e-05 |  |
| A53U C58U | 6.85e-05 ± 2.7e-06 | 2650 ± 390 |  | 3.23e-05 ± 1.2e-05 | 5.43e-05 ± 6.6e-06 |  |  |
| U31G U55G U56C | 0.00133 ± 0.00026 | 4490 ± 1500 | 0.000162 ± 3.4e-05 | 0.000395 ± 9.8e-05 | 0.000948 ± 0.00012 | 7.22e-05 ± 2.4e-05 |  |
| A12U C67U C70G | 2.06e-05 ± 6.6e-06 |  |  |  |  |  |  |
| G13A A52G | 6.74e-05 ± 2.2e-06 | 1040 ± 140 |  | 4.85e-05 ± 1.2e-05 | 6.07e-05 ± 1.1e-05 |  |  |
| G43A U45G C58G | 2.82e-05 ± 8e-07 | 199 ± 61 |  |  |  |  |  |
| C16A U69G | 7.88e-05 ± 1.9e-05 |  | 7.48e-05 ± 1.5e-05 | 6.89e-05 ± 1.5e-05 |  |  |  |
| G7C C10G C67G | 1.87e-05 ± 2.3e-06 |  |  |  |  |  |  |
| G7U G66U C70G | < 1e-05 |  |  | < 1e-05 |  |  |  |
| U55G A64C | 0.000152 ± 1.4e-05 | 1210 ± 350 | 5.93e-05 ± 1.7e-05 | 9.39e-05 ± 1.5e-05 | 0.000143 ± 2e-05 |  |  |
| A12U G60U G66C C68U | < 1e-05 |  |  |  | < 1e-05 |  |  |
| C10A A42C | < 1e-05 | 2410 ± 820 | < 1e-05 |  |  | < 1e-05 | < 1e-05 |

| Variant | kcat [1] [s⁻¹] | KM [2] [µM] | self-cleavage kobs at 640 uM GlcN6P [3] [s⁻¹] | self-cleavage kobs at 2500 uM GlcN6P [4] [s⁻¹] | self-cleavage kobs at 10000 uM GlcN6P [5] [s⁻¹] | self-cleavage kobs at 160 uM GlcN6P [6] [s⁻¹] | self-cleavage kobs at 40 uM GlcN6P [7] [s⁻¹] |
| --- | --- | --- | --- | --- | --- | --- | --- |
| U30C A53U | 0.000197 ± 3.1e-05 | 1290 ± 540 | 5.5e-05 ± 1e-05 | 0.000158 ± 1.5e-05 | 0.000159 ± 1.8e-05 |  |  |
| A14U G32A | 0.0126 ± 0.0035 | 3720 ± 1400 | 0.00156 ± 0.00027 | 0.00376 ± 0.0007 | 0.0102 ± 0.001 | 0.00046 ± 0.00011 | 0.000167 ± 1.7e-05 |
| G13U A39G | 0.00264 ± 0.00039 | 2070 ± 520 | 0.000749 ± 0.00012 | 0.00177 ± 0.0003 | 0.00208 ± 0.00023 | 0.000147 ± 3.4e-05 | 5.19e-05 ± 1.1e-05 |
| A52G C67A | 0.000584 ± 5.9e-05 | 1300 ± 300 | 0.000199 ± 3.2e-05 | 0.000301 ± 8.4e-05 | 0.000533 ± 5.6e-05 | 7.46e-05 ± 2e-05 |  |
| U30G A39U | 0.00794 ± 0.0035 |  | 0.000857 ± 0.00016 | 0.00224 ± 0.00096 | 0.00645 ± 0.00095 | 0.000455 ± 8.4e-05 | 0.000127 ± 2.3e-05 |
| G9A C71U | 5.71e-05 ± 4.6e-06 |  |  |  |  |  |  |
| G40U U55A | 0.00366 ± 0.0016 |  | 0.000764 ± 0.00022 | 0.00204 ± 0.00041 | 0.00304 ± 0.00059 | 0.000217 ± 5.8e-05 | 0.00026 ± 5.9e-05 |
| G60C C70G | 2.59e-05 ± 9.4e-06 |  |  |  | < 1e-05 |  | < 1e-05 |
| C50G U54C | 5.48e-05 ± 1.1e-05 |  |  | 5.87e-05 ± 1.8e-05 |  | 5.92e-05 ± 2.5e-05 |  |
| U30C U54G | 0.000209 ± 1.3e-05 | 411 ± 120 | 0.000118 ± 2.8e-05 | 0.00018 ± 3.5e-05 | 0.000203 ± 2.5e-05 | 9.02e-05 ± 4.2e-05 |  |
| U47C C58A | 0.00036 ± 6e-05 | 4240 ± 1300 | 3.95e-05 ± 1.1e-05 | 0.00016 ± 2.7e-05 | 0.000244 ± 3.3e-05 |  |  |
| G29U C50A | < 1e-05 |  |  |  |  |  | < 1e-05 |
| G37U U49A C61G C70G | 2.13e-05 ± 6.5e-06 |  |  |  |  |  |  |
| C11A C71U | 0.000122 ± 1.1e-05 | 451 ± 210 | 7.03e-05 ± 1.1e-05 | 0.000147 ± 2.3e-05 | 0.000113 ± 8e-06 |  |  |
| U46A C67U | 0.00326 ± 0.0007 | 2370 ± 780 | 0.000811 ± 0.00012 | 0.00173 ± 0.00027 | 0.00257 ± 0.00033 | 0.000165 ± 2.9e-05 | 9.11e-05 ± 2.1e-05 |
| C68G U69G | 2.17e-05 ± 5e-06 |  |  | 2.65e-05 ± 1.2e-05 |  |  |  |
| A14U C68U | 0.00143 ± 0.00047 |  | 0.000297 ± 3.8e-05 | 0.000422 ± 6.8e-05 | 0.00123 ± 0.00011 | 6.57e-05 ± 1.2e-05 | 2.73e-05 ± 7.7e-06 |
| G32U G40U | 0.000265 ± 3e-05 | 7170 ± 1300 | 1.68e-05 ± 7.3e-06 | 7.08e-05 ± 7.2e-06 | 0.000153 ± 1.6e-05 |  |  |
